Source: patent US20030040044A1

Tests used:
[1] = target: αVβ3 integrin on human cells (human) (UniProt P06756); test: saturation binding of 125-I ReoPro to A375S2 cells, Bmax, n = 6
[2] = target: αVβ3 integrin on human cells (human) (UniProt P06756)
[3] = target: αVβ3 integrin on human cells (human) (UniProt P06756); test: saturation binding of 125-I ReoPro to A375S2 cells (express αvβ3 and αvβ5; ReoPro showed no binding to αvβ5), n = 3
[4] = target: αVβ3 integrin on human cells (human) (UniProt P06756); test: saturation binding of 125-I ReoPro to M21 cells, Bmax, n = 7
[5] = target: αVβ3 integrin on human cells (human) (UniProt P06756); test: saturation binding of 125-I ReoPro to M21 cells (express αvβ3 and αvβ5; ReoPro showed no binding to αvβ5), n = 3
[6] = target: αVβ3 integrin on human cells (human) (UniProt P06756); remark: listed apart in the source

Receptors per cell (receptors per cell) [1]: 370000 | Adhesion (%) of A375S.2 cells to fibrin (% of adhesion without antibody) [2]: 12.9 | Adhesion (%) of A375S.2 cells to fibrinogen (% of adhesion without antibody) [2]: 6.5 | Adhesion (%) of A375S.2 cells to gelatin (% of adhesion without antibody) [2]: 6 | Adhesion (%) of A375S.2 cells to vitronectin (% of adhesion without antibody) [2]: 38.1 | Kd [3]: 22 nM | Receptors per cell (receptors per cell) [4]: 660000 | Kd [5]: 10 nM | Adhesion (%) of HUVEC to fibrin (% of adhesion without antibody) [6]: 35.8 | Adhesion (%) of HUVEC to fibrinogen (% of adhesion without antibody) [6]: 8.7 | Adhesion (%) of HUVEC to gelatin (% of adhesion without antibody) [6]: 2.5 | Adhesion (%) of HUVEC to vitronectin (% of adhesion without antibody) [6]: 54.9
B1: ReoPro (Fab, INN chains, looked up, V domains shown)
VH: EVQLQQSGTVLARPGASVKMSCEASGYTFTNYWMHWVKQRPGQGLEWIGAIYPGNSDTSYIQKFKGKAKLTAVTSTTSVYMELSSLTNEDSAVYYCTLYDGYYVFAYWGQGTLVTVSA
VL: EIVLTQSPVTLSVTPGDSVSLSCRASRDISNNLHWFQQTSHESPRLLIKYASQSMSGIPSRFSGSGSGTDFTLSINSVETEDFGMYFCQQTNSWPYTFGGGTKLEIK
modifications: Fab 125I label in some assays
